This assay addresses T1, human 5T4 oncofoetal glycoprotein (human, UniProt Q13641 32-420).
T1 construct: whole, on cells; also called h5T4; trophoblast glycoprotein
T1 sequence (looked up): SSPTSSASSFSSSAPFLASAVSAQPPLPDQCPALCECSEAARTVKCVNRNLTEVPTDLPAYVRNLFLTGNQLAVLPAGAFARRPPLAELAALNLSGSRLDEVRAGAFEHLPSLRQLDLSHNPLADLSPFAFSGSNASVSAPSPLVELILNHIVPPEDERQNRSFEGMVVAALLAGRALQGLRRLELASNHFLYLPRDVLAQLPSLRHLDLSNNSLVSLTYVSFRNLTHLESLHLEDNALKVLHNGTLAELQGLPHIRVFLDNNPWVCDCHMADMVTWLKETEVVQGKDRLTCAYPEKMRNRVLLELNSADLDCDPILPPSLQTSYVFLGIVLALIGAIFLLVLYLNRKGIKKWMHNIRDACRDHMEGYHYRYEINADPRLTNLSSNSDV
The assay can be described thus: summary of the pull down and Western blot experiments. The procedure:
Denistometric scans of western blots between approximately 60-140 kDa (5T4 probe) and 30-140 kDa (CXCR4 probe). […] Under reducing conditions, the epitope recognized by 5T4 antibodies is destroyed but CXCR4 at 46 kD is detectable on the reduced gels of the 5T4 pulldown, (not shown). Thus, specific pull downs but not the controls, probed with either anti-CXCR4 or anti-5T4 detected molecules migrating ≈130 kDa in all the tumor lines.
Western blots were carried out using a BioRad Mini-PROTEAN Tetra (Thermo Fisher) supplemented with protease and phosphatase inhibitor cocktails (Thermo Fisher). RIPA buffer (50 mM Tris-Cl pH 7.4, 150 mM NaCl, 1% NP40, 0.25% Na-deoxycholate, 1 mM PMSF and protease and phosphatase inhibitor cocktail) was used as an alternative method of cell lysis. The compound PD98059 (Thermo Fisher) was applied to cells to inhibit MEK1 at 100 μM for 1 h prior to CXCL12 stimulation. Other primary antibodies used were ERK1/2, phospho-ERK1/2 (Thr202/Tyr204/Thr185/Tyr187), AKT and phospho-AKT (Thr308) (Cell Signalling Technology) at 1:1000. Following secondary antibody labelling using appropriate HRP conjugates (AbSerotec) hybridizing bands were detected using SuperSignal West Dura (Thermo Fischer). […]
(Immunoblotting shows a protein as a band on a membrane.)

B1: human CXCR4 (receptor, UniProt P61073 1-352, looked up)
chain: MEGISIYTSDNYTEEMGSGDYDSMKEPCFREENANFNKIFLPTIYSIIFLTGIVGNGLVILVMGYQKKLRSMTDKYRLHLSVADLLFVITLPFWAVDAVANWYFGNFLCKAVHVIYTVNLYSSVLILAFISLDRYLAIVHATNSQRPRKLLAEKVVYVGVWIPALLLTIPDFIFANVSEADDRYICDRFYPNDLWVVVFQFQHIMVGLILPGIVILSCYCIIISKLSHSKGHQKRKALKTTVILILAFFACWLPYYIGISIDSFILLEIIKQGCEFENTVHKWISITEALAFFHCCLNPILYAFLGAKFKTSAQHALTSVSRGSSLKILSKGKRGGHSSVSTESESSSFHSS
notes: whole, on cells; Endogenous CXCR4 of human tumour cell lines, tested as unreduced solubilised membrane fractions (Western blot, pull down); also called chemokine (C-X-C motif) receptor 4
With B1, the binding result is reported as “binds”.
